# From US20220119784
# Tests used:
# [1] = system: PDCD-1 megaTAL parent (Artificial Sequence); assay: cell_activity; settings: primary human T cells, mRNA electroporation, TIDE
# [2] = system: PDCD-1 megaTAL thermostable variant (Artificial Sequence); assay: cell_activity; settings: nearly 80%; primary human T cells, mRNA electroporation, TIDE
substance,measurement,setting,value
PDCD-1 target site,activity,[1],< 20 % editing
same,activity,[2],80 % editing
